Values joined by “and” are separate entries in the source; they are usually repeats but may differ in a detail not shown here. Equal entries are not always repeated.
Target: the molecule itself
Assay: cross-linking; SVG-A cells infected with JCV for 1 week, reacted as whole cells with 0.5, 1, 2 or 5 mM DSS (or DMSO) for 2 h at 4°C in DPBS (+), quenched with 50 mM Tris pH 7.5, lysed in 1% Triton X-100; SDS-PAGE and immunoblot with anti-agnoprotein antibody

B1: JCV agnoprotein expressed in JCV-infected SVG-A cells (natural protein)
chain: MVLRQLSRKASVKVSKTWSGTKKRAQRILIFLLEFLLDFCTGEDSVDGKKRQRHSGLTEQTYSALPEPKAT
notes: JC virus (JCV) agnoprotein made from the viral genome in infected cells; monomer about 8 kDa; The virus was prepared from JCI cells or JC virus-infected SVG-A cells; source: SVG-A cells infected with JCV for 1 week
stoichiometry N: 2 and 3 and 4 and 5
